Data as given in the Human Domainome abundance scans (Beltran et al. 2025).

B1: Ankyrin-2, residues 3571 to 3650; numbered along this chain, Q01484 (parent)
chain: ERLAYIADHLGFSWTELARELDFTEEQIHQIRIENPNSLQDQSHALLKYWLERDGKHATDTNLVECLTKINRMDIVHLME

Variants of: B1
Experiment: abundance fitness (aPCA) (normalised: wild type 0, dead -1); higher = more abundant; growth selection in yeast, the domain comes from the species named
Conditions: Homo sapiens

Abundance fitness, by site and new letter:
L51: A -0.165; C -0.236; D -0.058; E -0.111; F 0.037; G -0.154; H -0.034; I -0.015; N -0.123; P -0.272; Q 0.104; R -0.072; S -0.107; T 0.017; V -0.087; W -0.106; Y 0.031
E52: A 0.037; C -0.132; D -0.178; F -0.034; G -0.146; H -0.09; I -0.039; K 0.036; L 0.012; M -0.083; P -0.378; Q 0.088; R -0.045; S -0.057; T 0.006; V 0.006; W -0.045; Y -0.393
R53: A -0.052; C -0.086; D -0.413; G -0.117; H -0.092; K -0.029; L -0.236; M -0.109; N -0.144; P -0.216; S 0.005; T -0.029; V -0.067; W 0.002; Y -0.166
D54: A -0.022; C -0.134; E -0.02; F 0.01; G 0.003; H 0.025; I -0.354; K 0.097; L -0.035; M -0.013; N -0.033; P -0.144; Q -0.111; R -0.073; S -0.095; T 0.018; V -0.024; W -0.041; Y 0.008
G55: A -0.013; C -0.114; D 0.041; E -0.033; F -0.143; H -0.041; I -0.089; K -0.094; L -0.017; M -0.061; N 0.028; P -0.035; Q 0.008; S -0.045; T -0.026; V -0.038; W -0.112; Y -0.052
K56: A -0.02; C 0.067; D 0.052; E 0.149; F -0.023; H 0.022; I -0.084; L -0.043; N -0.071; P -0.05; Q -0.067; R -0.037; S -0.019; T -0.01; V -0.057; W -0.126; Y -0.13
H57: C -0.062; D -0.061; E 0.101; F -0.107; G -0.019; K 0.056; L -0.093; M 0.004; N -0.002; P 0.009; R -0.052; S 0.06; V 0; W -0.065
A58: C -0.026; E -0.071; F -0.05; G -0.03; H 0.156; I -0.294; L 0.041; M -0.231; N 0.054; P 0.027; Q 0.039; R -0.067; S -0.193; T -0.098; V -0.018; W -0.167; Y 0.026
T59: A -0.035; C -0.095; D -0.103; E -0.069; F -0.159; G -0.088; H -0.055; K -0.025; L -0.04; M -0.124; N -0.054; Q 0.008; R -0.087; S 0.036; V -0.106; W -0.099; Y 0.121
D60: A -0.07; C -0.043; E -0.041; F 0.074; G -0.115; H -0.286; I -0.104; K -0.092; L -0.022; M 0.019; N -0.375; P -0.069; Q -0.018; R -0.082; S -0.105; T -0.016; W -0.067; Y -0.151
T61: A -0.102; D -0.017; E -0.07; F -0.063; G -0.011; H -0.038; I 0.027; K -0.286; L 0.084; M -0.427; N -0.244; P 0.029; Q -0.093; R -0.118; V 0.112; Y -0.087
N62: A -0.001; D 0.051; E -0.089; F -0.181; G 0.072; H 0.015; I -0.169; K -0.374; L 0.004; M 0.018; P -0.079; Q -0.082; R -0.013; S 0.007; T -0.029; V 0.035; W 0.012; Y -0.135
L63: A -0.11; C -0.044; E -0.657; F -0.143; G -0.624; H -0.777; I 0.07; K -0.677; M 0.022; P -0.651; Q -0.885; R -0.935; S -0.634; T -0.408; V -0.091; W -0.205; Y -0.139
V64: A -0.019; C -0.134; D -0.206; E 0.079; F -0.073; G -0.108; I 0.009; L -0.016; M 0.007; N -0.369; P -0.266; Q -0.065; R 0.01; S -0.011; T 0.025; W -0.165; Y -0.041
E65: A -0.012; C -0.147; D 0.193; F -0.184; G 0.014; H -0.059; I 0.143; K -0.086; L -0.072; M -0.243; N -0.231; P 0.015; Q -0.017; R -0.011; S -0.056; T 0.031; V -0.099; W -0.246; Y 0.097
C66: A -0.016; D -0.363; E 0.091; F -0.035; G -0.045; H 0.009; I -0.143; K 0.014; L -0.126; M 0.009; N -0.092; P 0.065; Q -0.018; R 0.001; S -0.013; T -0.078; V 0.034; W -0.058; Y -0.27
L67: A -0.224; C -0.153; E -0.643; F -0.591; G -0.84; H -0.838; I -0.199; M -0.249; P -0.875; R -1.09; T -1.16; W -0.832; Y -0.754
T68: A -0.057; E 0.047; F 0.041; G -0.039; H 0.068; I -0.122; K -0.044; M -0.102; N -0.231; P -0.098; R -0.071; S -0.147; V -0.001; Y -0.136
K69: A 0.001; C -0.094; D -0.094; E -0.054; F -0.126; G -0.06; I -0.121; L -0.059; M -0.068; N 0.012; P -0.545; Q 0; R 0.005; S -0.049; T -0.032; V -0.027; W -0.306; Y -0.017
I70: A -0.099; C -0.113; D -0.533; E -0.305; G -0.663; H -0.334; K -0.784; L -0.065; M -0.002; N -0.693; P -1.06; Q -0.382; R -0.551
